The results in this text go back to PMC9022993.

This assay has as its target human parkin, full-length, affinity tag cleaved (human) (UniProt O60260). The assay can be described thus: ITC; parkin (20 µM in 162 µl) in the cell titrated with the chimera (mG2-Ub 100 µM, CISD1-Ub 212 µM, mG2-pUb 84 µM, CISD1-pUb 106 µM); 18°C or 25°C; 25 mM HEPES or 20 mM Tris, 100 mM NaCl, 250 µM TCEP, pH 7.5 or 8.0; duplicate; single-site model.

Usually Kd stands for the equilibrium constant for the complex coming apart.

Sequence of human parkin, full-length, affinity tag cleaved (human) (O60260 whole entry): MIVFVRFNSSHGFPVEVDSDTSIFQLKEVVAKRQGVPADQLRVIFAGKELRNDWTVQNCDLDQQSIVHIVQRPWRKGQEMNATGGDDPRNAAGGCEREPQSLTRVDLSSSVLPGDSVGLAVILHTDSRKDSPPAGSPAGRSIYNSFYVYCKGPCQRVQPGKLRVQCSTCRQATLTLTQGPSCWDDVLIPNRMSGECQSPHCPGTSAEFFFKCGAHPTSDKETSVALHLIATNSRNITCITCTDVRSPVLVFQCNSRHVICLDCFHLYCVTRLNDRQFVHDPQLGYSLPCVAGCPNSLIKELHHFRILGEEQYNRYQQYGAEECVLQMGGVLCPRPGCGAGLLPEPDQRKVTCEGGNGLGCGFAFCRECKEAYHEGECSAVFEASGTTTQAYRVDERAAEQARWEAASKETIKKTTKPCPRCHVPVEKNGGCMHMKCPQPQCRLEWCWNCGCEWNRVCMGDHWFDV

Regarding “CISD1-pUb (CISD1-Ub phosphorylated by PINK1 at S65 of its Ub) (from UniProt Q9NZ45 32-108; P0CG63 1-76)”, the Kd amounted to 0.45 µM and the dH amounted to 7.17 kcal/mol.

For the substance “mG2-pUb (mG2-Ub phosphorylated by PINK1 at S65 of its Ub) (from UniProt Q8IXI2 402-582; P0CG63 1-76)”, the Kd is 0.92 µM and the dH was 9.8 kcal/mol.
